PMC13011415

Biological target: 1-acyl-sn-glycerol-3-phosphate acyltransferase alpha (AGPAT1), endogenous in human cells (human (endogenous in Huh7, HAP1, ERMS)) (UniProt Q99943)
Assay: immunostaining of cells or tissue

Chain of UniProt Q99943 (Q99943 27-283): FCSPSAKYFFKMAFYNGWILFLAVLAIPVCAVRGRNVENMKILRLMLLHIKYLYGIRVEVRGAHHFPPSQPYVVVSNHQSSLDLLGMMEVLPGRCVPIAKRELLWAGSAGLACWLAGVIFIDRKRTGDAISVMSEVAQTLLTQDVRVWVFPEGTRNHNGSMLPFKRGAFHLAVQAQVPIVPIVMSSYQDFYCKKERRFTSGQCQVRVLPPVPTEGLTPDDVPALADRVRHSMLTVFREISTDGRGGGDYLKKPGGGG

Chikungunya virus (CHIKV) particles, sucrose gradient-purified, strain IND-06-Guj (complex)
reduction of CHIKV binding (MIFD) in AGPAT1 KO against WT HAP1 cells: 85%
